Assay results: PMC11796367

B1: hKRM1-Fc (human IgG Fc-fused human KRM1 ectodomain) (Fc fusion)
chain: APSPGLGPECFTANGADYRGTQNWTALQGGKPCLFWNETFQHPYNTLKYPNGEGGLGEHNYCRNPDGDVSPWCYVAEHEDGVYWKYCEIPACQMPGNLGCYKDHGNPPPLTGTSKTSNKLTIQTCISFCRSQRFKFAGMESGYACFCGNNPDYWKYGEAASTECNSVCFGDHTQPCGGDGRIILFDTLVGACGGNYSAMSSVVYSPDFPDTYATGRVCYWTIRVPGASHIHFSFPLFDIRDSADMVELLDGYTHRVLARFHGRSRPPLSFNVSLDFVILYFFSDRINQAQGFAVLYQAVKEELPQERPAVNQTVAEVITEQANLSVSAARSSKVLYVITTSPSHPPQTVPG
B2: mKrm1-Fc (human IgG1 Fc-fused mouse KRM1 ectodomain) (Fc fusion)
chain: APGPRSGPECFTANGADYRGTQSWTALQGGKPCLFWNETFQHPYNTLKYPNGEGGLGEHNYCRNPDGDVSPWCYVAEHEDGVYWKYCEIPACQMPGNLGCYKDHGNPPPLTGTSKTSNKLTIQTCISFCRSQRFKFAGMESGYACFCGNNPDYWKHGEAASTECNSVCFGDHTQPCGGDGRIILFDTLVGACGGNYSAMAAVVYSPDFPDTYATGRVCYWTIRVPGASRIHFNFTLFDIRDSADMVELLDGYTHRVLVRLSGRSRPPLSFNVSLDFVILYFFSDRINQAQGFAVLYQATKEEPPQERPAVNQTLAEVITEQANLSVSAAHSSKVLYVITPSPSHPPQTAPG

Biological target: CVA8 virion (strain 14-943/GS/CHN/2014) (coxsackievirus A8 (CVA8), strain GS14)

Binder | neutralization of CVA8 strain GS14 infection of RD cells (cell viability assay) [nM]
B1 | 0.03
B2 | 0.32
